This is an account of results in patent US8084228B2, “Nogo-B receptor antagonists” (Yale University, priority 2006, dated 2011).

A short description of series [1]: Lipid transferase activity, [1-14C]IPP incorporation into polyprenyl diphosphates. The format is biochemical. Conditions: 1 μg immunoisolated protein, 20 minutes at 37° C. The method, then: NgBR and NgBR lacking the cytoplasmic domain (NgBR-CD) was immunoisolated from CHO cells expressing NgBR-HA or NgBR-CD by using anti-HA matrix beads. Lipid transferase activity was measured by determining the amount of [1-^14C]IPP (isopentenyl pyrophosphate) incorporated into butanol-extractable polyprenyl diphosphates. The activity was assayed in a 50 μL reaction containing 50 mM Hepes, pH 7.5, 2 mM MgCl2, 5 mM KF, 1 mM DTT, 0.5% CHAPS, 50 μM [1-^14C]IPP (0.15 μCi per reaction) and 50 μM allylic isoprenoid diphosphate (farnesyl diphosphate, geranylgeranyl diphosphate). The reaction was started by the addition of 1 μg of protein and allowed to proceed for 20 minutes at 37° C. Mouse liver extract (1 μg) was used as a positive control for the assay. The reaction was stopped by the addition of 0.5 mL of 1-butanol saturated with water, […] followed by the addition of 0.5 mL of 2 M KCl. An aliquot of the butanol phase was removed for scintillation counting using SafeScint scintillation (American Bioanalytic, Natick, Mass.).

Series [2] relates to HUVEC. The series can be described thus: HUVEC migration in modified Boyden chambers. It counts as cell-based, human. Conditions: recombinant Am-Nogo-B at various concentrations, 5 hours; similar in magnitude to 1.1 nM VEGF. The protocol:
The migratory response of human umbilical vein endothelial cells (HUVEC) in response to a gradient of recombinant, purified alkaline phosphatase (AP) fusion protein expressing Am-Nogo-B or a recombinant purified Am-Nogo-B was examined. HUVEC were cultured in M199 with 20% FBS and endothelial cell growth supplement (ECGS).
(§1) Cell migration was examined in modified Boyden chambers using 10 nM each of purified recombinant AP, AP fusion of Nogo-66 (AP-Nogo-66) or Am-Nogo-B. The transwell inserts (Costar transwell inserts; Corning) were coated with a solution of 0.1% gelatin (Sigma) in PBS at 4° C. overnight and then air-dried. VEGF at 50 ng/mL (1.1 nM) or recombinant Am-Nogo-B at various concentrations dissolved in medium 199 containing 0.1% BSA was added in the bottom chamber of the Boyden apparatus. HUVEC (200,000 cells) suspended in a 100 μL aliquot of medium 199 containing 0.1% BSA was added to the upper chamber. After 5 hours incubation, cells on both sides of the membrane were fixed and stained with a Diff-Quik staining kit (Baxter Healthcare, Miami, Fla.). The average number of cells from five randomly chosen high-power (×400) fields on the lower side of the membrane was counted.

Series [3] concerns the target T1, NgBR-HA (Homo sapiens, UniProt Q96E22).
T1 construct: CHO cells stably expressing full-length NgBR with a C-terminal HA tag (CHO-NgBR-HA); expressed in transfected cells; host or cells: CHO
T1 sequence (Q96E22 1-293): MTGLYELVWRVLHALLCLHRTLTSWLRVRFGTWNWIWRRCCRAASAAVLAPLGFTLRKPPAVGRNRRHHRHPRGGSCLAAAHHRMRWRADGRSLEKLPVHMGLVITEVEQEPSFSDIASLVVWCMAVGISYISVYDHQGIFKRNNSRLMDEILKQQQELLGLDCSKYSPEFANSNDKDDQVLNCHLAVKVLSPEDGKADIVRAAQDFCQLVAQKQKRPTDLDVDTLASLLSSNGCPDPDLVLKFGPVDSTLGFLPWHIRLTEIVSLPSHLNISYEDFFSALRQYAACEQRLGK
The series can be described thus: Immunoisolation of NgBR-HA from CHO cell extracts incubated with purified Am-Nogo-B, Western blot. It counts as binding. Conditions: lysates of vector or NgBR-HA-transfected CHO cells, 25 μg Am-Nogo-B-myc. The protocol: Single NgBR cDNA clones were isolated by sib selection and sequenced. A NgBR-HA was created in pIRESneo vector (BD, Palo Alto, Calif.), with the HA tag at the carboxy terminus. To access the physical interaction of NgBR with Am-Nogo-B, 50 μg of solubilized extracts of CHO cells expressing control vector (pIRESneo) or NgBR-HA was incubated with 25 μg of purified Am-Nogo-B or buffer for 2 hours at room temperature. The HA-tagged NgBR was immunoisolated with anti-HA immunobeads (Roche, Indianapolis, Ind.) and associated proteins analyzed by Western blotting. For the Western blots, expression of NgBR-HA was detected by using anti-HA (Roche) and NgBR (Imgenex), respectively, and beta-actin (Sigma) or Hsp90 (BD Biosciences-Pharmingen) was used to control for loading.
For orientation: In western blotting, separated proteins are transferred to a membrane and probed.

The test system of series [4] is CHO cells expressing NgBR. The series can be described thus: Chemotaxis of CHO cells and CHO cells expressing NgBR in a Boyden chamber. It counts as cell-based. The settings on record: CHO cells versus CHO cells expressing NgBR. The method, then:
as §1
Using the method described above, CHO cells and CHO cells expressing NgBR were placed into a Boyden chamber and the chemotactic response to soluble Am-Nogo-B was examined.

Series [5] concerns HUVEC. The series can be described thus: Tube formation of HUVEC in 3-D collagen cultures (total network length). It counts as cell-based, human. Conditions: Am-Nogo-B 80 nM, 1-2 days. The protocol: HUVEC were resuspended (final concentration of 1×10^6) in a mixture containing rat tail type I collagen (1.5 mg/mL) 1/10 volume of 10×M199 and 1 M Hepes, neutralized with NaOH. Droplets (0.1 mL each) of the cell/collagen mixture were placed in cell culture dishes and allowed to polymerize for 15 minutes at 37° C. Growth medium containing either vehicle or agonist was then added to each well. HUVEC were allowed to form tube-like structures for 1-2 days. To evaluate tube formation in 3-D cultures, cells were photographed using the program OPENLAB (Improvision) and total-network length, defined as an elongation of cell into tube-like structures typically seen in 3-D cultures, was quantified in five fields for each replicate per experiment by using the measurement tools provided with OPENLAB.

The subject of series [6] is A549 cells. Briefly: Growth in culture of A549 cells engineered to secrete Am-Nogo-B. It counts as cell-based, human. Conditions: A549 cells secreting Am-Nogo-B versus vector control. An excerpt: Human A549 cells were stably transfected with vector alone (control) or a vector encoding a secreted form of Am-Nogo-B. The production of Am-Nogo-B and the effects on A549 cell growth in culture were examined.

Series [7] has as its system A549 cells. The series can be described thus: Tumors of A549 cells engineered to secrete Am-Nogo-B in immunodeficient mice. It counts as in vivo.
The target in series [8] is T2, NgBR (Homo sapiens, UniProt Q96E22).
T2 sequence (Q96E22 1-293): T1 sequence (Q96E22 1-293)
The series can be described thus: AP fusion protein binding to CHO cells expressing NgBR. More on the design: an isolated cDNA encoding NgBR is 2,636 base pairs encoding an open reading frame of 293 amino acids; expressed in transfected cells. The settings on record: increasing concentrations of purified Am-Nogo-B. The protocol:
(§2) To detect AP-Am-Nogo-B binding, cultures were washed with Hanks' balanced salt solution (HBSS) containing 20 mM HEPES, pH 7.5, and 1 mg/mL BSA (HBH). The plates were then incubated with AP-Am-Nogo-B in DMEM containing 20 mM Hepes, pH 7.5, and 1 mg/mL BSA for 2 hours at 4° C. The bound AP-Am-Nogo-B was detected by using the Blue Substrate kit (Vector Laboratories). The blue staining was examined by using the ODYSSEY Infrared Imaging System (Li-Cor, Lincoln, Nebr.) and confirmed by microscopy. Alternatively, the bound AP-Am-Nogo-B was extracted with Triton X-100, and AP activity was colorimetrically quantified by using p-nitrophenyl phosphate (Sigma) as substrate after heat inactivation of endogenous AP. Non-specific binding was determined by measuring binding in the presence of a 100-fold molar excess of recombinant Am-Nogo-B lacking the AP fusion protein. Specific binding was determined by subtracting the non-specific binding from total binding. For determination of apparent Kd, the binding of AP-Am-Nogo-B was measured in triplicate as described above and the Kd value was quantified by using the Scatchard plot program of GraphPad PRISM (one-site binding, linear regression) using the ratio of bound ligand to free ligand as the y axis and bound ligand (pM) as the x axis.
A recombinant AP-Am-Nogo-B fusion protein was used to screen a cDNA expression library from human heart (500,000 independent clones) transfected into COS or CHO cells using Lipofectamine 2000 (Invitrogen). COS-7 cells were cultured in high-glucose DMEM with 10% FBS. CHO cells were cultured in MEM-α with 5% FBS.

Series [9] has as its target T2, NgBR. Briefly: AP fusion protein binding to COS cells transfected with the isolated NgBR cDNA. More on the design: an isolated cDNA encoding NgBR is 2,636 base pairs encoding an open reading frame of 293 amino acids; expressed in transfected cells; host or cells: COS-7 (A4). The settings on record: COS cells (FIG. 6). The method, then:
as §2
For expression cloning of Am-Nogo-B receptor, pools of 5,000 arrayed clones from a human heart cDNA library (OriGene Technologies, Rockville, Md.) were transfected into COS-7 cells, and AP-Am-Nogo-B binding was assessed by using AP versus AP-Am-Nogo-B binding and detection of the AP product by near-infrared cell imaging (Li-Cor, Lincoln, Nebr.) or AP activity assays.
Single NgBR cDNA clones were isolated by sib selection and sequenced. […] The HA-tagged NgBR was immunoisolated with anti-HA immunobeads (Roche, Indianapolis, Ind.) and associated proteins analyzed by Western blotting. For the Western blots, expression of NgBR-HA was detected by using anti-HA (Roche) and NgBR (Imgenex), respectively, and beta-actin (Sigma) or Hsp90 (BD Biosciences-Pharmingen) was used to control for loading.

The subject of series [10] is Endothelial cells. Briefly: Am-Nogo-B-induced migration of endothelial cells, inhibition by NgBR ectodomain peptides or fusion protein. It counts as cell-based. The settings on record: endothelial cells (FIG. 35). The protocol:
as §1
Endothelial cells were incubated with vehicle (control) of one of peptides P1-P4 (200 nM each) in the presence of Am-Nogo-B (100 nM).
Similarly, treatment of endothelial cells with mFc-ecto, but not mFc, blocked Am-Nogo-B-induced cell migration (FIG. 35).

Series [11] relates to Endothelial cells. The series can be described thus: Blocking of AP-Am-Nogo-B binding to endothelial cells. Conditions: 20 nM and 100 nM. The method, then:
as §2, with “axis. […]” for “axis.”

Where [12] appears, read: A549 tumors expressing Am-Nogo-B.

B1: NgBR: human Nogo-B receptor, 293 amino acids, SEQ ID NO:1; immunoisolated as NgBR-HA from CHO cells (protein, listed as Homo sapiens)
chain: T1 sequence (Q96E22 1-293)
modifications: HA tag
notes: immunoisolated as NgBR-HA from CHO cells
With B1, the lipid transferase activity entry in [1] is “negative”.

B2: Am-Nogo-B: Residues 1-200 of Nogo-B, the amino terminus; recombinant, purified, with Myc-His tag (protein)
chain: MEDLDQSPLVSSSDSPPRPQPAFKYQFVREPEDEEEEEEEEEEDEDEDLEELEVLERKPAAGLSAAPVPTAPAAGAPLMDFGNDFVPPAPRGPLPAAPPVAPERQPSWDPSPVSSTVPAPSPLSAAAVSPSKLPEDDEPPARPPPPPPASVSPQAEPVWTPPAPAPAAPPSTPAAPKRRGSSGSVVVDLLYWRDIKKTGV
modifications: left off: small tags and cut ends
notes: Residues 1-200 of Nogo-B, the amino terminus; recombinant, purified, with Myc-His tag
With B2, in series [2], the “HUVEC migration, dose dependence” value is recorded as “dose-dependently increases migration”. Further, the “physical interaction with NgBR-HA (immunopurification)” value in [3] is listed as “interacted with lysates only when the receptor was expressed”. Further, in series [4], the “chemotactic response to soluble Am-Nogo-B” value was “transfection of NgBR was required”. The tube formation result in series [5] is reported as “stimulated an increase in tube formation”. Besides, the “basal growth of A549 cells in culture” value in series [6] is recorded as “did not effect the basal growth”. In addition, the “growth rate of tumors in vivo” value in [7] (A549 cells secreting Am-Nogo-B versus vector control, immunodeficient mice) was “increased the growth rate of tumors”. In series [7] (setting [12]), the “lymphangiogenesis (LYVE-1 staining)” value is listed as “reduced lymphangiogenesis”, the “tumor angiogenesis (PECAM-1-positive tumor cells)” value is listed as “increased angiogenesis” and the “tumor associated macrophages (F4/80 positive cells)” value is reported as “increase tumor associated macrophages”. In addition, in [8], the “displacement of the binding of 10 nM AP-Am-Nogo-B from transfected CHO cells” value is “dose-dependently displaced”. The “binding to COS cells transfected with the isolated NgBR cDNA” value in series [9] is “afforded the binding”.

B3: mFc-ecto: Fc fusion of amino acids 52-116 of NgBR (SEQ ID NO:1), HA-, heptahistidine tagged fusion protein (protein)
chain: LGFTLRKPPAVGRNRRHHRHPRGGSCLAAAHHRMRWRADGRSLEKLPVHMGLVITEVEQEPSFSD
modifications: also: Fc fusion, HA tag, heptahistidine tag
As to B3, the “Am-Nogo-B-induced cell migration in presence of Fc protein” value in [10] is “blocked”. In addition, the “binding of AP-Am-Nogo-B to endothelial cells in presence of Fc protein” value in [11] is “blocked”.
